Experimental findings from PMC11746035 (Frontiers in Immunology, 2024) are described below.

To fix the notation:
B1: BD57-028 (antibody, V domains shown)
VH: QITLKESGPTLVKPTQTLTLTCTFSGFSLSASGEGMGWIRQPPGKALEWLALIYWDADERYSPSLRSRLTITKDTSKNQVVLKMTNMNPVDTATYYCAHHSITTVVDYWGQGMLVTVSS
VL: QSALTQPASVSGSPGQSITISCTGTISDVGAFNYVSWYQQHPGRAPKLIIYDVSTRPSGISIRFSGSKSGNTASLTISGLQPEDEADYYCSSYSHTSLVFGTGTKVTVL
notes: heavy chain of BD57-028 (IGHV2-5*02, D56), not modified; light chain of BD57-028; IgG1; source: Expi 293, transfected, purified (protein A)
B2: BD56-1290 (antibody, V domains shown)
VH: QITLKESGPTLVKPTQTLTLTCTFSGFSLSTSGVGVGWIRQPPGKALEWLALIYWDDDSRYSPSLKTRLTITKDTSKNQVVLTLTNMDPVDTATYYCGHFTIDMIVGYWGQGTLVTVSS
VL: QSALTQPASVSGSPGQSITISCTATSIDVGAFHYVSWYQHHPGKAPKLIIFDVTNRPSGVSNRFSGSKSGNTASLTISGLQAEDEADYYCSSYTDSTVVFGGGTKLTVL
notes: heavy chain of BD56-1290 (IGHV2-5*02, D56), not modified; light chain of BD56-1290; IgG1; source: Expi 293, transfected, purified (protein A)
B3: XGv-265 (antibody, V domains shown)
VH: QITLKESGPTLVKPTQTLTLTCNFSGFSLNTYGVGVGWIRQPPGKALEWLALIYWDGDERYGPFFKNKVTIAKDTSKNQVVLTMTNMDPVDTATYYCARHLIPTIFDYWGQGTLVTVSS
VL: QSALTQPASVSGSPGQSITISCTGTSSDVGGSNYVSWYQHHPDRAPKLLIYEVTNRPSGVSNRFSGSKSANTASLTISGLQAEDEADYYCSSYTTTSTHILFGGGTKLTV
notes: heavy chain of XGv-265 (IGHV2-5*02, D56), not modified; light chain of XGv-265; IgG1; source: Expi 293, transfected, purified (protein A)
B4: BD56-595 (antibody, V domains shown)
VH: QITLKESGPTLVKPTQTLTLTCTFSGFSITTAGVGVGWIRQPPGKALEWLALIYWDGDRRYSPSLKNRVDITTDISKNQVVLTMTNMAPVDTATYYCAQHTIDMILDYWGQGTLVTVSS
VL: QSALTQPPSASGSPGQSVTISCTATSSDVGAYNYVSWYQQHPGKAPKLMIYEVNKRPSGVPDRFSGSKSGNTASLTVSGLQAEDEADYYCSSYTDNIVFGTGTRVTVL
notes: heavy chain of BD56-595 (IGHV2-5*02, D56), not modified; light chain of BD56-595; IgG1; source: Expi 293, transfected, purified (protein A)
B5: LY-CoV1404 (antibody, V domains shown)
VH: QITLKESGPTLVKPTQTLTLTCTFSGFSLSISGVGVGWLRQPPGKALEWLALIYWDDDKRYSPSLKSRLTISKDTSKNQVVLKMTNIDPVDTATYYCAHHSISTIFDHWGQGTLVTVSS
VL: QSALTQPASVSGSPGQSITISCTATSSDVGDYNYVSWYQQHPGKAPKLMIFEVSDRPSGISNRFSGSKSGNTASLTISGLQAEDEADYYCSSYTTSSAVFGGGTKLTVL
notes: heavy chain of LY-CoV1404 (IGHV2-5*02, D56), not modified; variable region in PDB 7MMO; light chain of LY-CoV1404; IgG1; source: Expi 293, transfected, purified (protein A)

The experiment addresses T1, SARS-CoV-2 WT RBD (SARS-CoV-2, WT (ancestral) strain, UniProt P0DTC2).
T1 construct: also called wild-type L452 RBD
The experiment can be described thus: BLI; antibody (IgG1, 11 μg/mL) loaded on AHC2 biosensor to about 1.5 nm; RBD in solution, association 300 s, dissociation 600 s; PBS-TB (PBS, 0.02% v/v Tween-20, 0.1% w/v BSA); 25°C; 1,000 rpm; binding response less than 0.1 considered non-binding. The following applies: both partners purified. (In general: BLI is a label-free optical method that tracks binding on a fibre tip over time.)
Take B1: the binding result is “binds”.
As to B2, the binding result is reported as “binds”.
Take B3: the binding result is “binds”.
Next, B4: “binds”.
In the case of B5, the binding result was “binds”.
